Laboratory results: WO2009138494A2 (dated 2009)

T1: recombinant murine TLR2/Fc chimera, R&D Systems cat no: 1530-TR (murine, UniProt Q9QUN7 25-587)
T1 construct: Bought Fc chimera, coated on ELISA plates; also called mTLR2/Fc; mTLR2; not shown: Fc part of the chimera
T1 sequence (looked up): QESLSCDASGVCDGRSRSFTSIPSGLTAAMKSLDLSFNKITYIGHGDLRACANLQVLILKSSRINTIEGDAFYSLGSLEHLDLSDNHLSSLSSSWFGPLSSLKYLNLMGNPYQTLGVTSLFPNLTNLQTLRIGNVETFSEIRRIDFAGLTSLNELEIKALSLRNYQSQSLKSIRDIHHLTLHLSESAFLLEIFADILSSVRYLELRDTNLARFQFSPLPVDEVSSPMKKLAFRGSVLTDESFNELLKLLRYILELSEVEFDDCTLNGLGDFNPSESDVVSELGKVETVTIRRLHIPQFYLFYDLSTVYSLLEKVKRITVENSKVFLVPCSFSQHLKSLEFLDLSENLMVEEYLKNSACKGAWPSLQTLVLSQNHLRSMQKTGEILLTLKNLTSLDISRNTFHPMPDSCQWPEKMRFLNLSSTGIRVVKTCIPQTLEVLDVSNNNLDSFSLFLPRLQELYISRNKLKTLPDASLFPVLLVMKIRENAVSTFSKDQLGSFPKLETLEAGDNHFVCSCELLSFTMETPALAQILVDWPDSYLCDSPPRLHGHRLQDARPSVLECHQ


Tests used:
[1] = target: T1, recombinant murine TLR2/Fc chimera, R&D …; test: ELISA: TLR coated at 2 ug/ml, periplasmic extract of the clone, anti-VHH detection, OD against no-Nanobody control
[2] = target: T2, recombinant human TLR4/MD2 (rhTLR4/MD2), R&D Systems cat no: 3146-TM/CF (human, UniProt O00206 24-631; Q9Y6Y9 17-160, limits assumed); test: as above
T2 construct: Bought protein, coated on ELISA plates
T2 sequence (O00206 24-631 limits assumed, chain 1 of 2): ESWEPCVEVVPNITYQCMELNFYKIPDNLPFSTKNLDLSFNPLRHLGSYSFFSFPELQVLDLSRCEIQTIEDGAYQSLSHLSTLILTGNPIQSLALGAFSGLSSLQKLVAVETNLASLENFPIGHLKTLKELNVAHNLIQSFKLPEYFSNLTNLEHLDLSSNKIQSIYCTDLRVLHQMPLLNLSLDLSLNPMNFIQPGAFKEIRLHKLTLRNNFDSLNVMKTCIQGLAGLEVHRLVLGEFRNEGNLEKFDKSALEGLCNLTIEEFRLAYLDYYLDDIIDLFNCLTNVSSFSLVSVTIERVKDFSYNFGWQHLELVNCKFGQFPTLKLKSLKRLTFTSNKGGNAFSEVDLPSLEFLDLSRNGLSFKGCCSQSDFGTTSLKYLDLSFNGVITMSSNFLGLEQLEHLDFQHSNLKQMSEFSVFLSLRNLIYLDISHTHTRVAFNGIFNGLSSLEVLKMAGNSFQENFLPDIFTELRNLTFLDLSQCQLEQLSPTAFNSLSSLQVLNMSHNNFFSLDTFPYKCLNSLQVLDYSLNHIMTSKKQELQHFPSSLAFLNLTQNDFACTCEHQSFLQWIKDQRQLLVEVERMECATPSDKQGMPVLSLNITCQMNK
T2 sequence (Q9Y6Y9 17-160 limits assumed, chain 2 of 2): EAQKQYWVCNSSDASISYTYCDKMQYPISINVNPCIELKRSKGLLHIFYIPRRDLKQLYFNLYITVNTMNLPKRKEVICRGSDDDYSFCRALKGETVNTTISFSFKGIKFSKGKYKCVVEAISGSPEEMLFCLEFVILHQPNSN

binding result [1]	binding result [2]	Binder
binds		172-B3 (VHH, not shown: C-terminal c-myc tag and (His)6 tag coded by the vector) VHH: VQLVKSGGGGLVQAGGSLRLSCAASGRTFSRYVMGWFRQAPGKEREFVAVINRSGGSTDYAASVKGRFTIARDNAKNTVYLEMTSLEPEDTAVYYCAAGEYYTGSSSRYDHWGQGTPVTVSS
binds		161-A11 (VHH, not shown: C-terminal c-myc tag and (His)6 tag coded by the vector) VHH: EVQLVESGGGLVQAEGSLRLSCVASGRTFDTYVMGWFRQAPGKEREFVAAINRSGVTDYPDSATGRFTISRENAKNTVYLQGTSLKPEDTGVYYCAARKAFYYGTSSYPNDYAHWGQGTQVTVSS
binds		172-H4 (VHH, not shown: C-terminal c-myc tag and (His)6 tag coded by the vector) VHH: EVQLVESGGGLVQAGGSLRLSCAASGRTFDSYAMGWFRQAPGKEREFVAAIGYSGTYDADSVKGRFTISRDNAKKTTVYLQMNNLKPEDTAVYYCAAAGTFSTTVGTTTSHYDYWGQGTQVTVSS
binds		161-H4 (VHH, not shown: C-terminal c-myc tag and (His)6 tag coded by the vector) VHH: EVQLVESGGGLVQAGGSLRLSCAASGRPDSSYFMGWFRQAPGKEFEFVSRINWIGSNTAYADSVKGRFTISRDNAKNTVYLQMNSLKPEDTAVYFCVATTINSFNSGNYKDPRLWTYWAQGTQVTVSS
binds		172-A1 (VHH, not shown: C-terminal c-myc tag and (His)6 tag coded by the vector) VHH: EVQLVESGGGLVQAGGSLRLSCTASGRTFSSFVMGWFRQAPGKEREFVAYITLRGGDSPLYADSVKDRFTISRDIAKNLVYLQMNSLKPEDTAVYYCAARYSGGSVYRNDYAYWGQGTQVTVSS
binds		172-C9 (VHH, not shown: C-terminal c-myc tag and (His)6 tag coded by the vector) VHH: EVQLVESGGGLVQAGGSLRLSCAASGRTYSIDSMAWFRQAPGKERQFLGSILWSDDSTNYADSVKGRFTISRDNAKNTMYLQMGSLKPEDTAVYYCRSWDGRQVYWGQGTQVTVSS
binds		172-E5 (VHH, not shown: C-terminal c-myc tag and (His)6 tag coded by the vector) VHH: EVQLVESGGGLVQTGGSLRLSCAASGSTFSNAVMGWFRQAPGKEREFVARITWNGGSTYYGDSAKGRFTISRDNAKTTAYLLMNSLQPEDTANYFCAARMRPVFYSTSGQESFYDYWGQGTQVTVSS
binds		161-A3 (VHH, not shown: C-terminal c-myc tag and (His)6 tag coded by the vector) VHH: EVQLVESGGGLVQTGGSLRLSCAASGSTFSKAVMGWFRQAPGKEREFVARITWNGGSTYYGDSAKGRFTISRDIGKTTAYLLMNSLQPEDTANYFCAARMRPVFSSSSVQESFYDYWGQGTQVTVSS
binds		172-F11 (VHH, not shown: C-terminal c-myc tag and (His)6 tag coded by the vector) VHH: EVQLVESGGGLVQTGGSLRLSCAASGSTFSRAVMGWFRQAPGKEREFVARITWNGGSAYYGDSAKGRFTISRDNAKTTAYLLMNSLQPEDTANYFCAARMRPVSDSSSGQESFYDYWGQGTQVTVSS
binds		161-E2 (VHH, not shown: C-terminal c-myc tag and (His)6 tag coded by the vector) VHH: EVQLVESGGGLVQAGGSLRLSCAASGRAFSSYVMGWFRQTPGKEREFVSVINWSGGSTDYSSSVKGRFTISRDNAKNTVYLQMTSLEPEDTAVYYCAAGQYYTGRSDRYDYWGQGTPVTVSS
binds		172-F7 (VHH, not shown: C-terminal c-myc tag and (His)6 tag coded by the vector) VHH: EVQLVESGGGLVQAGGSLRLSCAASGRTFSRYVMGWFRQAPGKEREFVAVINWSGGSTDYSTYVKGRFTIFRDNAKNTVFLEMTSLEPEDTAVYYCAAGEYYTGDSSRYDHWGQGTPVTVSS
binds		172-B7 (VHH, not shown: C-terminal c-myc tag and (His)6 tag coded by the vector) VHH: EVQLVESGGGLVQAGGSLRLSCAASGRTFSSYVMGWFRQAPGKEREFVSVINRSGGSTDYASSVKGRFTISRDNAKNTVYLEMTSLEPEDTAVYYCAAGEYYTGISSRYDYWGQGTPVTVSS
binds		172-A12 (VHH, not shown: C-terminal c-myc tag and (His)6 tag coded by the vector) VHH: EVQLVESGGGLVQAGGSLRLSCAASGRTFSRYVMSWFRQAPGKEREFVAVINWSGGSTDYSTSVKGRFTIFRDNAKNTVYLETTSLELEDTAVYYCAAGEYYTGASSRYDHWGQGTPVTVSS
binds		161-E1 (VHH, not shown: C-terminal c-myc tag and (His)6 tag coded by the vector) VHH: EVQLVESGGGLAQAGGSLRLSCAASGRTFSRYVMGWFRQAPGKEREFVSVINRSGGSTDYSTYVKGRFTIFRDNAKNTVFLEMTSLEPEDTAVYYCAAGEYYTGDSSRYDHWGQGTPVTVSS
binds		172-G3 (VHH, not shown: C-terminal c-myc tag and (His)6 tag coded by the vector) VHH: EVQLVKSGGGLVQAGGSLRLSCAASGRTFSRYIMGWFRQAPGKEREFVAVINRSGGSTDYASSVKGRFTISRDNAKNTVYLEMTSLEPEDTAVYYCAAGEYYTGSSSRYDHWGQGTPVTVSS
binds		161-C9 (VHH, not shown: C-terminal c-myc tag and (His)6 tag coded by the vector) VHH: EVQLVESGGGLVQAEGSLRLSCVASGTHVMGWFRQASGKEREFVAAINRSGSTDYPDSADSAKGRFTISRDNAKNTVYLQMTSLKPEDTGVYYCAARKAFYFGTSSYPSDYAYWGQGTQVTVSS
binds		161-F4 (VHH, not shown: C-terminal c-myc tag and (His)6 tag coded by the vector) VHH: EVQLVESGGGLVQPGGSLRLSCAASGSIGSGDAMGWYRQPPGKQRERVATITSGGLTVYTESVKGRFAISRDNAKNTVYLQMNSLKPEDTAVYYCNTVNYRVGWGPGTQVTVSS
binds		161-F2 (VHH, not shown: C-terminal c-myc tag and (His)6 tag coded by the vector) VHH: EVQLVESGGGLVQAEGSLRLSCVASGPTFDTYVMGWFRQAPGKEREFVAAINRSGSTDYPDYWDSAKGRFTISRDNAKNTVYLQMTSLRPEDTGVYYCAARKTFYFGTSSYPNDYAYWGQGTQVTVSS
binds		172-C1 (VHH, not shown: C-terminal c-myc tag and (His)6 tag coded by the vector) VHH: EVQLVESGGGLVQAGGSLRLSCAASELAFDFDGYNFAWVRQAPGREREFVSVINRSGGSTDYASSVKGRFTISRDNAKNTVYLQMTSLEPEDTAVYYCAAGPYYTGSSDRYDYWGQGTPVTVSS
	binds	107-A7 (VHH, not shown: C-terminal c-myc tag and (His)6 tag coded by the vector) VHH: EVQLVESGGGLVQAGGSLRLSCVASGRTLSTVNMGWFRQAPGKERDIVARISGSSVSTYYAESVRGRFTISRDNAKNTVYLQMNSLRPEDTGVYYCVADSPGGRSYEYWGQGTQVTVSS
	binds	107-E9 (VHH, not shown: C-terminal c-myc tag and (His)6 tag coded by the vector) VHH: EVQLVESGGGLVQAGGSLRLSCVASGRTLSSVNMGWFRQAPGKERDIVARISPSSVSTYYAESVKGRFTISRDNAKNTVYLQMNSLRPEDTGVYYCVADSPGGRSYEYWGQGTQVTVSS
	binds	107-G9 (VHH, not shown: C-terminal c-myc tag and (His)6 tag coded by the vector) VHH: EVQLVESGGGLVQAGGSLRLSCVASGRTLSTVNMGWFRQAPGKERDIVARISPSSVSTYYSESVKGRFTISRDNAKNTVYLQMNSLRPEDTAVYYCVADSPGGRSYEYWGQGTQVTVSS
	binds	107-C12 (VHH, not shown: C-terminal c-myc tag and (His)6 tag coded by the vector) VHH: EVQLVESGGGLVQAGGSLRLSCVASGRTLSTVNMGWFRQAPGKERDIVARISGSSISTYYAESVRGRFTISRDNAKNTVYLQMNSLRPEDTAVYYCVADSPGGRSYEYWGQGTQVTVSS
	binds	133-H11 (VHH, not shown: C-terminal c-myc tag and (His)6 tag coded by the vector) VHH: EVQLVESGGGLVQAGGSLRLSCVASGRSLSTVNMGWFRQAPGKERDIVARISGSSISTYYAESVRGRFTISRDNAKNTVYLQMNSLRPEDTAVYYCVADSPGGRSYEFWGQGTQVTVSS
	binds	107-A9 (VHH, not shown: C-terminal c-myc tag and (His)6 tag coded by the vector) VHH: EVQLVESGGGLVQAGGSLRLSCVASGRTLSTYNMGWFRQAPGKERDIVARISGSSVSTYYAESVRGRFTISRDNAKNTMYLQMNNLRPEDTAVYYCVADGPGGRSYEYWGQGTQVTVSS
	binds	133-A1 (VHH, not shown: C-terminal c-myc tag and (His)6 tag coded by the vector) VHH: EVQLVESGGGLVQAGESLRLSCVASGISISTEVMGWYRQAPGKQGESVAIIKTDGSTYYPDSVKGRFAISRDNAKNTVYLAMNSLKLEDTGVYYCIIAGRGRGQGTQVTVSS
	binds	133-H4 (VHH, not shown: C-terminal c-myc tag and (His)6 tag coded by the vector) VHH: EVQLVKSGGGLVQAGESLRLSCVASGISISTEVMGWYRQAPGKQGESVAIIKTDGSTYYPDSVKGRFAISRDNAKNTVYLQMNSLKLEDTGVYYCVIPGRGPGQGTQVTVSS
binds		161-H1 (VHH, not shown: C-terminal c-myc tag and (His)6 tag coded by the vector) VHH: EVQLVESGGGLVQAGGSLRLSCAPSRRTFSTYVMGWFRQAPGMEREFVSAISWSSGSTRYADSVKGRFTISRDSVKNTMYLQMNSLKPEDTAVYYCAAGASFGSIFWESAREYNYWGQGTQVTVSS
binds		172-C6 (VHH, not shown: C-terminal c-myc tag and (His)6 tag coded by the vector) VHH: EVQLVESGGGVVQAGGSLSLSCAASGRTLSVYAMGWFRQAPGKEREFVATISVSGVYTYYTDSVKARFTISRDNAKNTVYLQMNSLKPEDTAVYYCAAGSKPTFLGSSYDYWGQGTQVTVSS
